1 molecule from paper PMC11399405 can be followed below.

For one series, the target named is SPD_1558 (Streptococcus pneumoniae D39, UniProt A0A0H2ZMV6 1-103). The series is described as follows: EMSA. In general terms: Mobility shift assays separate free from complexed probe on a gel.
In a further series the target is SPD_1777 (Streptococcus pneumoniae D39, UniProt A0A0H2ZNW3 1-317). The series is described as follows: EMSA.

B1: IGR1729/1728 and flanking RNA (55 nt) (ssRNA)
RNA: GCUAGUGCAGAUGCUCCAGUUAAAAAAGAGUAGGAGGUAGAGGAAAUGUCUCAAU
For B1, the binding result with SPD_1558 and in the series with SPD_1777 was “binds” each time.
